Measurements as given in the nanobody polyreactivity screen of Harvey et al. (2022).

assay: yeast display, Sf9 membrane polyspecificity reagent, FACS + sequencing; frameworks hold sequencing errors
Summary of the method: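 Genes from sorted yeast were amplified by colony PCR, read by MiSeq 2 × 250 sequencing and filtered on CDR length. These cells carried a synthetic nanobody library in Saccharomyces cerevisiae BJ5465 and were sorted by FACS into low and high (top ~1%) gates on anti-HA and streptavidin fluorescence. Polyreactivity is labelled according to the gate of origin.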

Row | Sequence | polyreactivity (PSR sort gate)
1 | QVQLVESGGGLVQAGGSLRLSCAASGIIFPVYTKGWYRQAPGKERELVAAISTSGGRTYYADSVKGRFTISRDNAKNTVYLQMNSLKPEYTAVYYCAAKRYTRKAGYYYWGQGTQVTVSS | high polyreactivity
2 | QVQLVESGGGLVQAGGSLRLSCAASGIIFPYNVMGWYRQAPGKERELVAAITRGAASTYYADSVKGRFTISRDNAKNTVYLQMNSLKPEDTAVYYCNADGTWRTYNYWGQGTQVTVSS | high polyreactivity
3 | QVQLVESGGGLVQAGGSLRLSCAASGIIFQYYAMGWYRQAPGKERELVAAINSGTTTYYADSVKGRFTITRDNAKNTVYLQMNSLKPEDTAVYYWNKDWHSQDFSAYNSYDYWGQGTQVTVSS | low polyreactivity
4 | QVQLVESGGGLVQAGGSLRLSCAASGIIFRFYAMGWYRQAPGKERELVAAIRTSGGSTYYADSVKGRFTISRDNAKNTVYLQMNSLKPEDTAGYYCAARFYNGWTKHNYWGQGTQVTVSS | high polyreactivity
5 | QVQLVESGGGLVQAGGSLRLSCAASGIIFRFYSMGWYRKEPGKERELVAAITSSGGSTYYADSEKGRFTISRDNAKNTVYLQMNSLKPEDSAVYYCATSTGPYRGRFYYWGQGTQVTGSS | high polyreactivity
6 | QVQLVESGGGLVQAGGSLRLSCAASGIIFRGNAMGWYRQAPGKERELVAAISRSGRTNYADSVKGRFTISRDNAKNTVYLQMNSLKPEDTAVYYCAVDKRYGRVVGRDYDYWGQGTQVTVSS | high polyreactivity
7 | QVQLVESGGGLVQAGGSLRLSCAASGIIFRGNSMGWYRQAPGKERELVAAIRFSGGSTYYADSVKGRFTISRDYAKNTVYLQMNSLKPEDTAVYYFAATRRRYGSTTSEYYYWGQGTQVTVSS | high polyreactivity
8 | QVQLVESGGGLVQAGGSLRLSCAASGIIFRGYAMGWYRQAPGKERELVARISITGGRTYYADSVKGRFTISRDNAKNTVYLQMNSLKPEDTAVYYCAAGKYVRTVRYDYWGQGTQVTVSS | high polyreactivity
9 | QVQLVESGGGLVQAGGSLRLSCAASGIIFRGYPMGWYRQAPGKERELVARISITGGRTYYADSVKGRFTSSRDNAKNTVELQMNSLKPEDTAVYYCAAGKYVSTVRYDYWGQGTQVTVAS | high polyreactivity
10 | QVQLVESGGGLVQAGGSLRLSCAASGIIFRIYAMGWYRQAPGKEREFVAAISGSGDSTYYADSVKGRFTISRDNAKNTVYLQMNSLKPEDTAVYYCAARAIFRQGDRIYDSWGQGTQVTVSS | high polyreactivity
11 | QVQLVESGGGLVQAGGSLRLSCAASGIIFRIYAMGWYRQAPGKERELVAAITYIGTSTYYADSVKGRFTISRDNAKNTVYLQMNSLKPEDTAVYFCYFYYVFRSDYWGQGTQVTVSS | low polyreactivity
12 | QVQLVESGGGLVQAGGSLRLSCAASGIIFRKYAMGRYRQAPGKERELVAAISSSGGSTYYADSVKGRFTISRDNAKNTVYLQMNSLKPEDTAVYYCAAERQVTNKIFNYWGQGTQVTVSS | high polyreactivity
13 | QVQLVESGGGLVQAGGSLRLSCAASGIIFRLYAMGWYRQAPGKERELVAAISSGGSTYADSVKGRFTISRDNAKNTVYFQMNSLKPEDTAVYYCAAGRVWHLYWYNYWGQGTQVTVSS | high polyreactivity
14 | QVQLVESGGGLVQAGGSLRLSCAASGIIFRLYAMGWYRQAPGKERELVAAITSRGGSTYYADSVKGRFTISRDNAKNTVYLQKNSLKPEDTAVYYCAARPVYSGYDYWGQGPQVTVSS | high polyreactivity
15 | QVQLVESGGGLVQAGGSLRLSCAASGIIFRNYAMGWYRQAPGKERELVATIRYRGGRTYADSVKGRFTISRDNAKNTVYLQMNSLKPEDTAVYYCNTYARYAYLTGRMEYWGQGTQVTVSS | high polyreactivity
16 | QVQLVESGGGLVQAGGSLRLSCAASGIIFRPYTMGWYRQAPGKERELVAAISQSGGRTYYADSVKGRFTISRDNAKNTVYLQMNSLKPEDTAVYYCNVLGSYSYYPWPIPGYDYWGQGTQVTVSS | high polyreactivity
17 | QVQLVESGGGLVQAGGSLRLSCAASGIIFRQYAMGWYRQAPGKERELVAGISSRGGSTYYADSVKGRFTISRDNAKNTVYLQMNSLKPEDTAVYYCAARYPGYFYHLDYWGQGTQVTVSS | low polyreactivity
